Assay results from US20260132182A1 (published 2026).
Read-outs that look alike come from different tables or passages of the source. Starred links: 1 amine or outer side, 2 acyl side, 3 side chain; linkers in the order of their positions; H or OH if unused. Non-standard residues stand in square brackets, D forms with d. Groups on a side chain read outwards from the residue. *: point of attachment. Butyryl(4-SO2NHCO(CH2)16Tz) = O=C(CCCCCCCCCCCCCCCCc1nnn[nH]1)NS(=O)(=O)CCCC(=O)*; Decanoyl(10-(4-HOOC-PhO)) = O=C(O)c1ccc(OCCCCCCCCCC(=O)*)cc1; C20 diacid = O=C(O)CCCCCCCCCCCCCCCCCCC(=O)*; C18 diacid = O=C(O)CCCCCCCCCCCCCCCCC(=O)*; C16 diacid = O=C(O)CCCCCCCCCCCCCCC(=O)*; γGlu = O=C(O)[C@H](CCC(=O)[*:2])N[*:1]; εLys = N[C@@H](CCCCN[*:1])C(=O)[*:2]; Trx = NC[C@H]1CC[C@H](C(=O)O)CC1; AEEA = NCCOCCOCC(=O)O; Aib = CC(C)(N)C(=O)O

Legend:
Assay in all cases: cell-based or functional assay
[1] = target: T1, human GLP-1 receptor (human, UniProt P43220 24-463)
[2] = target: T2, human amylin-3 (a) receptor (human, UniProt P30988 25-474; O60896 24-148)
T2 sequence (looked up) 1: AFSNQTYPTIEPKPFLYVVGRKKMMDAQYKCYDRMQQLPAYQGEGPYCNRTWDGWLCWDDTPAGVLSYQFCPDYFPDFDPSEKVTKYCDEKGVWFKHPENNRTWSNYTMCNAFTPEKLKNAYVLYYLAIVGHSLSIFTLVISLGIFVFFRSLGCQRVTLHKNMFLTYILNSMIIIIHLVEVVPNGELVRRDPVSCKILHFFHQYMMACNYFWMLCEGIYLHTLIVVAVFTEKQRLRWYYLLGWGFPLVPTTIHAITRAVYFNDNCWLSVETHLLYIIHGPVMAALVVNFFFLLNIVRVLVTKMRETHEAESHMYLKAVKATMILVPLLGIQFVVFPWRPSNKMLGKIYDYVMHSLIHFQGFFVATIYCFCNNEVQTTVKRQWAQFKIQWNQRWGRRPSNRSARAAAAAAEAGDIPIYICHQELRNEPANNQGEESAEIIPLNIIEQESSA
T2 sequence (looked up) 2: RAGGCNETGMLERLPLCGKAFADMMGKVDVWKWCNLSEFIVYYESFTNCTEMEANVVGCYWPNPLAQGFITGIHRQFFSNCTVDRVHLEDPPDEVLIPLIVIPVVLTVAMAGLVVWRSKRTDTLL

[3] = target: T1, human GLP-1 receptor; remark: listed apart in the source
[4] = target: T2, human amylin-3 (a) receptor; remark: listed apart in the source

| Binder | Human GLP-1R potency [EC50 (pM)] [1] | Human AmyR3 potency [EC50 (pM)] [2] | Human GLP-1R potency [EC50 (pM)] [3] | Human AmyR3 potency [EC50 (pM)] [4] |
| --- | --- | --- | --- | --- |
| Compound 0116 (peptide) peptide: H[Aib]EGTFTSDVSSYLEEQAARK([AEEA-AEEA-γGlu-C18 diacid])FIAWLVRGRK([AEEA-AEEA-γGlu-C18 diacid])GGEASELSTAALGRLSAELHELATLPRTETGSGSP-NH2 | 1.5 pM | 21.7 pM |  |  |
| Compound 0094 (peptide) peptide: H[Aib]EGTFTSDVSSYLEGQAAK([AEEA-AEEA-γGlu-C20 diacid])EFIAWLVRGRGGGGGGGGGEASELSTAALGRLSAELHELATLPRTETGSGSP-NH2 | 7.5 pM | 11.3 pM |  |  |
| Compound 0099 (peptide) peptide: HWEGTFTSDVSSYLEEQAARK([AEEA-AEEA-γGlu-Decanoyl(10-(4-HOOC-PhO))])FIEWLVRGK([AEEA-AEEA-γGlu-Decanoyl(10-(4-HOOC-PhO))])GEGEASELSTAALGRLSAELHELATLPRTETGSGSP-NH2 | 9.6 pM | 44.9 pM |  |  |
| Compound 0098 (Lys21 and Lys30 each (10-(4-carboxyphenoxy)decanoyl-gGlu-Ado-Ado); C-terminal amide) peptide: HGEGTFTSDVSSYLEEQAARKFIEWLVRGKGEGGGGGGGGGEASELSTAALGRLSAELHELATLPRTETGSGSP | 7.9 pM | 15.6 pM |  |  |
| Compound 0101 (Lys21 and Lys30 each (10-(4-carboxyphenoxy)decanoyl-gGlu-Ado-Ado); C-terminal amide) peptide: HWEGTFTSDVSSYLEEQAARKFIEWLVRGKGEGGGGGGGGGEASELSTAALGRLSAELHELATLPRTETGSGSP | 7.1 pM | 10.2 pM |  |  |
| Compound 0114 (peptide) peptide: H[Aib]EGTFTSDVSSYLEEQAAREFIAWLVRGRK([AEEA-AEEA-γGlu-C18 diacid])GGEASELSTAALGRLSAELHELATLPRTETGSGSP-NH2 | 1 pM | 17.5 pM |  |  |
| Compound 0090 (peptide) peptide: HGEGTFTSDVSSYLEEQAARK([AEEA-AEEA-γGlu-C18 diacid])FIEWLVRGK([AEEA-AEEA-γGlu-C18 diacid])GEGGEASELSTAALGRLSAELHELATLPRTETGSGSP-NH2 | 32.6 pM | 70.9 pM |  |  |
| Compound 0100 (peptide) peptide: HWEGTFTSDVSSYLEEQAARK([AEEA-AEEA-γGlu-Decanoyl(10-(4-HOOC-PhO))])FIEWLVRGK([AEEA-AEEA-γGlu-Decanoyl(10-(4-HOOC-PhO))])GEGGGGGEASELSTAALGRLSAELHELATLPRTETGSGSP-NH2 | 6.8 pM | 30.4 pM |  |  |
| Comparator compound 0016 (ends and bridges not checked) peptide: H[Aib]EGTFTSDVSSYLEGQAAK([AEEA-AEEA-γGlu-C18 diacid])EFIAWLVRGRGGQEPGQEPK([AEEA-AEEA-γGlu-C18 diacid])CNTATCATQRLAEFLRHSSNNFGPILPPTNVGSNTP-NH2 |  |  | 510 pM | 1550 pM |
| Comparator compound 0185 (peptide) peptide: H[Aib]EGTFTSDVSSYLEGQAAKEFIAWLVRGRK([εLys-AEEA-AEEA-γGlu-C18 diacid])GGEASELSTAALGRPSAELHELATLPRTETGSGSP-NH2 |  |  | 13.1 pM | 5660 pM |
| Compound 0110 (peptide) peptide: H[Aib]EGTFTSDVSSYLEEQAARK([εLys-AEEA-AEEA-γGlu-C18 diacid])FIAWLVRGK([εLys-AEEA-AEEA-γGlu-C18 diacid])GGGGGGGGGEASELSTAALGRLSAELHELATLPRTETGSGSP-NH2 | 2.7 pM | 40.7 pM |  |  |
| Comparator compound 0164 (peptide) peptide: H[Aib]EGTFTSDVSSYLEGQAAKEIFAWLVRGRK([εLys-AEEA-AEEA-γGlu-C18 diacid])GGEASELSTAALGRLSAELHELATLPRTETGSGSP-NH2 |  |  | 852 pM | 29.6 pM |
| Compound 0109 (peptide) peptide: H[Aib]EGTFTSDVSSYLEEQAARK([AEEA-AEEA-γGlu-C18 diacid])FIAWLVRGK([AEEA-AEEA-γGlu-C18 diacid])GGGGGGGGGEASELSTAALGRLSAELHELATLPRTETGSGSP-NH2 | 3.2 pM | 19.1 pM |  |  |
| Compound 0115 (peptide) peptide: H[Aib]EGTFTSDVSSYLEEQAAREFIAWLVRGRK([AEEA-AEEA-γGlu-C18 diacid])EASELSTAALGRLSAELHELATLPRTETGSGSP-NH2 | 2.2 pM | 22.8 pM |  |  |
| Compound 0102 (peptide) peptide: H[Aib]EGTFTSDVSSYLEEQAAREFIAWLVRGRK(Butyryl(4-SO2NHCO(CH2)16Tz))ELSTAALGRLSAELHELATLPRTETGSGSP-NH2 | 14.7 pM | 9.8 pM |  |  |
| Compound 0093 (peptide) peptide: H[Aib]EGTFTSDVSSYLEGQAAK([AEEA-AEEA-γGlu-C18 diacid])EFIAWLVRGRGGGGGGGGGGGGGGGGGEASELSTAALGRLSAELHELATLPRTETGSGSP-NH2 | 7.5 pM | 8.6 pM |  |  |
| Comparator compound 0015 (ends and bridges not checked) peptide: H[Aib]EGTFTSDVSSYLEGQAAK([AEEA-AEEA-γGlu-C18 diacid])EFIAWLVRGRGGQEPGQEPCNTATCATQRLAEFLRHSSNNFGPILPPTNVGSNTP-NH2 |  |  | 45 pM | 312 pM |
| Compound 0120 (peptide) peptide: H[Aib]EGTFTSDVSSYLEEQAAREFIAWLVRGRK([AEEA-AEEA-γGlu-Trx-C20 diacid])GGGGEASELSTAALGRLSAELHELATLPRTETGSGSP-NH2 | 9.1 pM | 10.6 pM |  |  |
| Compound 0105 (peptide) peptide: H[Aib]EGTFTSDVSSYLEEQAARK([AEEA-AEEA-γGlu-C16 diacid])FIEWLVRGK([AEEA-AEEA-γGlu-C16 diacid])GEGQEPGGASELSTAALGRLSAELHELATLPRTETGSGSP-NH2 | 1.1 pM | 30.8 pM |  |  |
| Comparator compound 0192 (peptide) peptide: H[Aib]EGTFTSDVSSYLEEQAAREFIAWLVRGRK([AEEA-AEEA-γGlu-Trx-C20 diacid])GGGGEASELSTAALGRPSAELHELATLPRTETGSGSP-NH2 |  |  | 10.8 pM | 10000 pM |
| Compound 0095 (peptide) peptide: H[Aib]EGTFTSDVSSYLEGQAAK([AEEA-AEEA-γGlu-Trx-C20 diacid])EFIAWLVRGRGGGGGGGGGEASELSTAALGRLSAELHELATLPRTETGSGSP-NH2 | 7.4 pM | 6.6 pM |  |  |
| Comparator compound 0167 (peptide) peptide: H[Aib]EGTFTSDVSSYLEEQAAREIFAWLVRGRK([AEEA-AEEA-γGlu-Trx-C20 diacid])GGGGEASELSTAALGRLSAELHELATLPRTETGSGSP-NH2 |  |  | 10000 pM | 10.9 pM |
| Compound 0103 (peptide) peptide: H[Aib]EGTFTSDVSSYLEEQAAREFIAWLVRGRK(Butyryl(4-SO2NHCO(CH2)16Tz))EASELSTAALGRLSAELHELATLPRTETGSGSP-NH2 | 28.1 pM | 11.6 pM |  |  |
| Compound 0092 (peptide) peptide: H[Aib]EGTFTSDVSSYLEGQAAK([AEEA-AEEA-γGlu-C18 diacid])EFIAWLVRGRGGGGGGGGGGGGGEASELSTAALGRLSAELHELATLPRTETGSGSP-NH2 | 18.5 pM | 10.9 pM |  |  |
| Compound 0097 (peptide) peptide: HGEGTFTSDVSSYLEEQAARK([AEEA-AEEA-γGlu-Decanoyl(10-(4-HOOC-PhO))])FIEWLVRGK([AEEA-AEEA-γGlu-Decanoyl(10-(4-HOOC-PhO))])GEGGGGGEASELSTAALGRLSAELHELATLPRTETGSGSP-NH2 | 10 pM | 93.1 pM |  |  |
| Compound 0019 (peptide) peptide: H[Aib]EGTFTSDVSSYLEGQAAK([AEEA-AEEA-γGlu-C18 diacid])EFIAWLVRGRGGQEPGQEPEASELSTAALGRLSAELHELATLPRTETGSGSP-NH2 | 13.7 pM | 26.5 pM |  |  |
